This is an account of results in patent publication WO2008021263A2 (dated 2008).

Experiment [1] deals with T1, dimeric form of SDF-1α (Felis catus (Cat) (Felis silvestris …, UniProt O62657 22-89)).
T1 construct: Same protein as m1; also called SDF-lα dimers; dimeric state of the SDF-1α antigen
Description: SPR, both formats (SDF-1α on chip; Fab on anti-CH1 chip). (In SPR one partner is held on a chip, and binding of the other changes the refractive index at the surface.)

The target of experiment [2] is T2, SDF-1α (stromal cell-derived factor-1 alpha) (Felis catus (Cat) (Felis silvestris …, UniProt O62657 22-89)).
T2 construct: also called SDF-lα; SDF-I α
Description: SPR, SDF-1α with heparin in solution (Figure 7 legend: 1D3 IgG).

Experiment [3] concerns the target SDF-FITC (FITC-labelled SDF-1α) (Felis catus (Cat) (Felis silvestris …, UniProt O62657 22-89, FITC label, site not stated)). Description: fluorescence polarization time course with FITC-labelled SDF-1α (Figures 8A-8C). Background: Polarisation of emitted light reports the rotation of a fluorescent probe.
Experiment [4] concerns the target T1, dimeric form of SDF-1α. Description: SPR, IgG immobilised on chip, SDF-1α flowed (Table VI, not shown).
The target of experiment [5] is T2, SDF-1α (stromal cell-derived factor-1 …). Description: SPR, Fab captured on anti-CH1 chip, SDF-1α flowed (Table IV, not shown).
For experiment [6] the target is unchanged. Description: SPR, time course after dilution of SDF-1α in buffers HBS-EP, HBS-P and HBS-N.

T2 sequence (O62657 22-89 limits assumed): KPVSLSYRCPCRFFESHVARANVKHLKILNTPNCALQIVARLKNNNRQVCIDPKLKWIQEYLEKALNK
T1 sequence (O62657 22-89 limits assumed): as above
Sequence of SDF-FITC (FITC-labelled SDF-1α) (Felis catus (Cat) (O62657 22-89 limits assumed): as above

B1: 1D3 Fab (Fab, V domains shown)
VH: EVQLVQSGAEVKKPGASVKVSCKVSGYTLTKLSVHWVRQAPGKGLEWMGSFDPEDGETIYSQRFQGRVTMTEDTSTDTAYMELTSLRSEDTAVYYCATEGQWLVAYYGMDVWGQGTTVTVSS
VL: EIVLTQSPSSLSASVGDRVTITCRASQGISSALAWYQQKPGKAPKLLIYDASSLESGVPSRFSGSGSGTDFTLTISSLQPEDFATYYCQQFNSYPLTFGGGTKVEIK
notes: Fab of the 1D3 human monoclonal antibody; the constant parts are not; also called B-type Fab
As for B1, in the experiment with dimeric form of SDF-1α [1], the binding result was “binds”.

B2: 1D3 IgG (antibody, V domains shown)
VH: EVQLVQSGAEVKKPGASVKVSCKVSGYTLTKLSVHWVRQAPGKGLEWMGSFDPEDGETIYSQRFQGRVTMTEDTSTDTAYMELTSLRSEDTAVYYCATEGQWLVAYYGMDVWGQGTTVTVSS
VL: EIVLTQSPSSLSASVGDRVTITCRASQGISSALAWYQQKPGKAPKLLIYDASSLESGVPSRFSGSGSGTDFTLTISSLQPEDFATYYCQQFNSYPLTFGGGTKVEIK
notes: Human monoclonal IgG; also called B-type IgG; B-type antibody
On to B2, for which the binding result (in experiment [2]; in experiment [3]; in the experiment with dimeric form of SDF-1α [4]) was “binds” each time.

B3: 1H2 Fab (Fab, V domains shown)
VH: QVQLVQSGAEVKKPGASVKVSCKVSGYTFTKLSVHWVRQAPGKGLEWMGSFDPEDGETIYSQRFQGRVTMTEDTSTDTAYMELSSLRSEDTAVYYCATEGQWLVAYYGMDVWGQGTMVTVSS
VL: EIVLTQSPSSLSASVGDRVTITCRASQGISSALAWYQQKPGKAPKLLIYDASSLESGVPSRFSGSGSGTDFTLTISSLQPEDFATYYCQQFNSYPLTFGGGTKVEIK
notes: Fab of the 1H2 human monoclonal antibody; the constant parts are not; also called B-type Fab
Take B3: the binding result (with dimeric form of SDF-1α [1]; in experiment [5]) was “binds” in each case.

B4: 1H2 IgG (antibody, V domains shown)
VH: QVQLVQSGAEVKKPGASVKVSCKVSGYTFTKLSVHWVRQAPGKGLEWMGSFDPEDGETIYSQRFQGRVTMTEDTSTDTAYMELSSLRSEDTAVYYCATEGQWLVAYYGMDVWGQGTMVTVSS
VL: EIVLTQSPSSLSASVGDRVTITCRASQGISSALAWYQQKPGKAPKLLIYDASSLESGVPSRFSGSGSGTDFTLTISSLQPEDFATYYCQQFNSYPLTFGGGTKVEIK
notes: as for B2
Consider B4, for which the binding result (in experiment [3]; in experiment [6]; with dimeric form of SDF-1α [4]) was “binds” each time.
